Assay results taken from publication PMC4326362, “Non-canonical regulation of phosphatidylinositol 3-kinase gamma isoform activity in retinal rod photoreceptor cells” (Cell Communication and Signaling : CCS, 2015).
Residue numbers refer to the chain shown, from its start.

Columns and labels:
Assay in all cases: co-IP; Flag-tagged CTR-CNGA1 (wild type or mutant) and Myc-tagged RA domains co-expressed in HEK-293T cells; reciprocal immunoprecipitation with anti-Flag or anti-Myc antibodies (IgG as control), immunoblot, densitometry
Details in all cases: partners not purified
CTR-CNGA1 (D577N) = molecular target: T1, CTR-CNGA1 (D577N) (UniProt Q00194 483-690, D577N)
T1 construct: CNGA1 C-terminal region, residues 483-690, with D577N; Mutant of m1 made by site-directed mutagenesis; source: HEK-293T, transfected (pCDNA3), in lysate; not shown: FLAG, N-terminal, kept
T1 sequence (looked up): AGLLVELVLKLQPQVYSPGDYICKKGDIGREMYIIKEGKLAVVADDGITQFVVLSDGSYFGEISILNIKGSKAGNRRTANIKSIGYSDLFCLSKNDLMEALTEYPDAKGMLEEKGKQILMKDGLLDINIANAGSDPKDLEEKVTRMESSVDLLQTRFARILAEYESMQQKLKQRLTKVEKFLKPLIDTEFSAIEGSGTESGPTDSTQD

CTR-CNGA1 (E581Q) = molecular target: T2, CTR-CNGA1 (E581Q) (UniProt Q00194 483-690, E581Q)
T2 construct: CNGA1 C-terminal region, residues 483-690, with E581Q; Mutant of m1 made by site-directed mutagenesis; source: HEK-293T, transfected (pCDNA3), in lysate; not shown: FLAG, N-terminal, kept
T2 sequence (looked up): T1 sequence (looked up) with N95D, E99Q

CTR-CNGA1 (D577,578 N) = molecular target: T3, CTR-CNGA1 (D577,578 N) (UniProt Q00194 483-690, D577,578 N | D577,578 N)
T3 construct: CNGA1 C-terminal region, residues 483-690, with D577N and D578N; Mutant of m1 made by site-directed mutagenesis; source: HEK-293T, transfected (pCDNA3), in lysate; not shown: FLAG, N-terminal, kept
T3 sequence (looked up): T1 sequence (looked up) with D96N

B1: Myc-tagged RA domain of PI3Kγ (residues 141-311) (domain or fragment, UniProt P48736 141-311, looked up)
chain: HPPSEESQAFQRQLTALIGYDVTDVSNVHDDELEFTRRGLVTPRMAEVASRDPKLYAMHPWVTSKPLPEYLWKKIANNCIFIVIHRSTTSQTIKVSPDDTPGAILQSFFTKMAKKKSLMDIPESQSEQDFVLRVCGRDEYLVGETPIKNFQWVRHCLKNGEEIHVVLDTPP
notes: also called RA-PI3Kγ; PI3Kγ-RA; source: HEK-293T, transfected (pCDNA3), in lysate
CTR-CNGA1 (D577N)
  percent disruption of the interaction against wild type: 30 percent
CTR-CNGA1 (E581Q)
  percent disruption of the interaction against wild type: 50 percent
CTR-CNGA1 (D577,578 N)
  percent disruption of the interaction against wild type: 45 percent
